# Data published in patent US9475855B2, “Human Notch3 based fusion proteins as decoy inhibitors of Notch3 signaling” (THE TRUSTEES OF COLUMBIA UNIVERSITY IN THE CITY OF NEW YORK, priority 2008, dated 2016).
# Experiments:
# [1] = test system: CBF1 promoter activity; assay: VEGF-induced Notch signaling, CBF1 promoter (CSL-luciferase) reporter activity in HUVEC; format: cell-based, human; conditions: for inhibition of CBF1 promoter activity induced by Ad-VEGF: 40 MOI for each adenovirus; for VEGF-induced CBF1 promoter / CSL-luciferase reporter activity: Ad-VEGF-transduced HUVEC
# Protocol: To determine VEGF-induced Notch signaling, HUVEC which were infected with adenovirus were used. HUVEC plated 1-day prior in 6 well plates at 8.0×10^5 were infected with either Ad-LacZ as control or Ad-VEGF at indicated m.o.i. in the presence or absence of Ad-N1ECD/Fc. Two days after infection, infected HUVEC were re-seeded into 24-well plate at 1.5×10^5 cell in triplicate and cultured for 24 hours, and then transfected with 12.5 ng pRL-SV40 (Promega) and 137.5 ng pGA981-6 using Effectene transfection reagent (Qiagen). Cells were harvested either 1 or 2 days post-transfection and luciferase activity was determined by using the Dual-Luciferase® Reporter Assay System (Promega).
# One can measure Notch signaling function by measuring transcriptional activity of CBF1 promoter, which is activated by binding of Notch-IC to CBF1. We measured CBF1 promoter activity in HUVEC which was infected with adenovirus encoding VEGF-165 at different MOI (FIG. 6). Induction of CBF1 promoter was clearly detected in Ad-VEGF-infected HUVEC, compared to Ad-LacZ-infected cells in the MOI dependent manner. […] Thus VEGF induced Notch signaling activity.
# [2] = test system: MMP9; assay: gelatin zymography of conditioned medium, MMP-9; format: cell-based, human; conditions: co-transduction with Ad-VEGF, fibrin gel
# Protocol: FIGS. 24A-B show gelatin zymography analysis of MMP-9 and MMP-2 activity stimulated by VEGF in HUVEC. […] Transduced HUVEC were cultured on fibrin gel on the indicated day (i.e. D2, D4, D6, D8). Similar results were also obtained by using collagen gel, although induction of MMP-9 was stronger on fibrin gel than collagen gel (data not shown). […] HUVEC were transduced with Ad-N1ECDFc at the indicated doses and condition medium was collected from HUVEC cultured on collagen gel at day 4. FIGS. 24C-D show up-regulation of MMP-9 and MT1-MMP with Notch signaling. HUVEC were transduced with either Ad-LacZ or Ad-N1IC at 40 MOI. Numbers show PCR cycles. […] HUVEC were transduced with Ad-VEGF in the absence or presence of co-transduction of Ad-N1ECDFc at 40 MOI each. Ad-LacZ was co-transduced to make the same total amount of adenovirus at 80 MOI.
# Requisition of MMPs for angiogenic sprouting has been established by synthetic MMP inhibitors (16). GM6001 is one broad inhibitor against MMPs including MMP2, MMP9 and MT1-MMP (18).
# [3] = test system: VEGF-induced angiogenesis; assay: mouse Dorsa Air Sac (DAS) assay; format: in vivo
# From the text: These Figures show the role of Notch signaling in VEGF-dependent in vivo angiogenesis. FIGS. 25A-25D show inhibition of VEGF-induced angiogenesis with N1ECDFc in mouse DAS assay. Representative photographs are shown. FIG. 25A show subcutaneous induced angiogenesis with 293/VEGF transfectant versus 293/VEGF also expressing Notch decoy (Notch-based fusion protein) N1ECDFc. […] MDA-MB-231 breast cancer cells produce VEGF (data not shown).
# [4] = in vivo assays to model VEGF-induced skin neovascularization
molecule,measurement,setting,value
"N1ECDFc: Notch-based fusion protein or decoy: Notch1 extracellular domain EGF repeats fused to Fc; expressed from plasmid or adenovirus (Ad-N1ECDFc) (protein, left off: a dimerising Fc or GST) ARGLRCSQPSGTCLNGGRCEVANGTEACVCSGAFVGQRCQDPSPCLSTPCKNAGTCYVVDHGGIVDYACSCPLGFSGPLCLTPLANACLANPCRNGGTCDLLTLTEYKCRCPPGWSGKSCQQADPCASNPCANGGQCLPFESSYICGCPPGFHGPTCRQDVNECSQNPGLCRHGGTCHNEIGSYRCACRATHTGPHCELPYVPCSPSPCQNGGTCRPTGDTTHECACLPGFAGQNCEENVDDCPGNNCKNGGACVDGVNTYNCRCPPEWTGQYCTEDVDECQLMPNACQNAGTCHNSHGGYNCVCVNGWTGEDCSDNIDDCASAACFQGATCHDRVASFYCECPHGRTGLLCHLNDACISNPCNEGSNCDTNPVNGKAICTCPRGYTGPACSQDVDECALGANPCEHAGKCLNTLGSFECQCLQGYTGPRCEIDVNECISNPCQNDATCLDQIGEFQCICMPGYEGVYCEINTDECASSPCLHNGRCVDKINEFLCQCPKGFSGHLCQYDVDECASTPCKNGAKCLDGPNTYTCVCTEGYTGTHCEVDIDECDPDPCHIGLCKDGVATFTCLCQPGYTGHHCETNINECHSQPCRHGGTCQDRDNYYLCLCLKGTTGPNCEINLDDCASNPCDSGTCLDKIDGYECACEPGYTGSMCNVNIDECAGSPCHNGGTCEDGIAGFTCRCPEGYHDPTCLSEVNECNSNPCIHGACRDGLNGYKCDCAPGWSGTNCDINNNECESNPCVNGGTCKDMTSGYVCTCREGFSGPNCQTNINECASNPCLNQGTCIDDVAGYKCNCPLPYTGATCEVVLAPCATSPCKNSGVCKESEDYESFSCVCPTGWQGQTCEIDINECVKSPCRHGASCQNTNGSYRCLCQAGYTGRNCESDIDDCRPNPCHNGGSCTDGVNAAFCDCLPGFQGAFCEEDINECATNPCQNGANCTDCVDSYTCTCPTGFNGIHCENNTPDCTESSCFNGGTCVDGINSFTCLCPPGFTGSYCQYDVNECDSRPCLHGGTCQDSYGTYKCTCPQGYTGLNCQNLVRWCDSAPCKNGGKCWQTNTQYHCECRSGWTGFNCDVLSVSCEVAAQKRGIDVTLLCQHGGLCVDEEDKHYCHCQAGYTGSYCEDEVDECSPNPCQNGATCTDYLGGFSCKCVAGYHGSNCSEEINECLSQPCQNGGTCIDLTNTYKCSCPRGTQGVHCEINVDDCHPPLDPASRSPKCFNNGTCVDQVGGYTCTCPPGFVGERCEGDVNECLSNPCDPRGTQNCVQRVNDFHCECRAGHTGRRCESVINGCRGKPCRNGGVCAVASNTARGFICRCPARFEGATCENDARTCGSLRCLNGGTCISGPRSPTCLCLGSFTGPECQFPASSPCVGSNPCYNQGTCEPTSESPFYRCLCPAKFNGLLCHILDYSFTDLGPG",inhibition of CBF1 promoter activity induced by Ad-VEGF,[1]; 24 hr after reporter gene transfection,60%
same,inhibition of CBF1 promoter activity induced by Ad-VEGF,[1]; 48 hr after reporter gene transfection,90%
same,VEGF-induced CBF1 promoter / CSL-luciferase reporter activity,[1],clearly decreased
same,VEGF-induced CBF1 promoter / CSL-luciferase reporter activity,[1]; listed as Notch fusion protein,clearly reduced
same,induction and activation of MMP9,[2],inhibition
same,in vivo angiogenesis induced by MDA-MB-231,"[3]; adenovirus mediated expression of N1ECDFc, compared to adenovirus expressing LacZ",clearly inhibited
same,in vivo angiogenesis induced by 293/VEGF,"[3]; coexpression of N1ECDFc, compared to 293/VEGF alone",clearly inhibited
same,VEGF-induced neo-vascularization,[3]; [4],blocks
same,induction of VEGFR-1 expression,[3]; [4],blocks
